Measurements: patent US20240279307A1 (published 2024)
Positions count from the first letter of the chain named. One block for each binder: values may come before it.

What was measured:
[1] = biological target: T1, HMHA1, wild type (HA-1R; HA-1H-negative, rs1801284 G/G) peptide on HLA-A*02:01 (human); test: killing
T1 peptide: VLRDDLLEA

[2] = biological target: T2, HMHA1 (Rho GTPase-activating protein 45), minor histocompatibility antigen HA-1H, R139H polymorphism peptide … (human); test: multimer staining
T2 peptide: VLHDDLLEA

binding result [2]: recognises
B1: TCR5 (TCR, V domains shown)
Valpha: SQQGEEDPQALSIQEGENATMNCSYKTSINNLQWYRQNSGRGLVHLILIRSNEREKHSGRLRVTLDTSKKSSSLLITASRAADTASYFCATNSGNTPLVFGKGTRLSVIA
Vbeta: DTGVSQDPRHKITKRGQNVTFRCDPISEHNRLYWYRQTLGQGPEFLTYFQNEAQLEKSRLLSDRFSAERPKGSFSTLEIQRTEQGDSAMYLCASSLTTLDEQYVGPGTRLTVT
binding result [1]: no recognition

binding result [2]: recognises
B2: TCR10 (TCR, V domains shown)
Valpha: KNQVEQSPQSLIILEGKNCTLQCNYTVSPFSNLRWYKQDTGRGPVSLTIMTFSENTKSNGRYTATLDADTKQSSLHITASQLSDSASYICVVDSGGGADGLTFGKGTHLIIQP
Vbeta: B1 Vbeta with L96M, T97L, L99N, D100Y, V104F
binding result [1]: no recognition

binding result [2]: recognises
B5: TCR1 (TCR, V domains shown)
Valpha: SQQGEEDPQALSIQEGENATMNCSYKTSINNLQWYRQNSGRGLVHLILIRSNEREKHSGRLRVTLDTSKKSSSLLITASRAADTASYFCATKRDSGAGSYQLTFGKGTKLSVIP
Vbeta: DTGVSQDPRHKITKRGQNVTFRCDPISEHNRLYWYRQTLGQGPEFLTYFQNEAQLEKSRLLSDRFSAERPKGSFSTLEIQRTEQGDSAMYLCASSSTGGHNEQFFGPGTRLTVL
binding result [1]: no recognition

Second part, the binder before the results:

B3: TCR2 (TCR, V domains shown)
Valpha: KQEVTQIPAALSVPEGENLVLNCSFTDSAIYNLQWFRQDPGKGLTSLLLIQSSQREQTSGRLNASLDKSSGRSTLYIAASQPGDSATYLCAVIGLGGTYKYIFGTGTRLKVLA
Vbeta: DTGVSQDPRHKITKRGQNVTFRCDPISEHNRLYWYRQTLGQGPEFLTYFQNEAQLEKSRLLSDRFSAERPKGSFSTLEIQRTEQGDSAMYLCASSLVKGEKLFFGSGTQLSVL
binding result [1]: no recognition
binding result [2]: recognises

B4: TCR16 (TCR, V domains shown)
Valpha: KQEVTQIPAALSVPEGENLVLNCSFTDSAIYNLQWFRQDPGKGLTSLLLIQSSQREQTSGRLNASLDKSSGRSTLYIAASQPGDSATYLCAVHLLNDYKLSFGAGTTVTVRA
Vbeta: B1 Vbeta with T97V, T98V, L99G, D100N, Y103F, V104F, T113L
binding result [1]: no recognition
binding result [2]: recognises
